Data published in patent WO2021244601A1 (dated 2021).

Columns and labels:
Test in all cases: cell-based or functional assay
[1] = biological target: S protein on pseudovirus of B.1.1.7 strain (hCoV-19/England/QEUH-F56F0F/2021) (SARS-CoV-2 B.1.1.7 strain)
[2] = biological target: S protein on pseudovirus of p.1 strain (SARS-CoV-2 p.1 strain)
[3] = biological target: S protein on pseudovirus of B.1.351 strain (SARS-CoV-2 B.1.351 strain)

Binder	IC50, pseudovirus neutralisation (method as 3.15) [1]	IC50, pseudovirus neutralisation (method as 3.15) [2]	IC50, pseudovirus neutralisation (method as 3.15) [3]
CA304 (antibody, V domains shown) VH: EVQLQQWGAGLLKPSETLSLTCAVYGGSFSGYYWSWIRQPPGKGLEWIGEVNHSGSTNYNPSLKSRVTISVDTSKNQLSLKLNSVTAADTAVYYCARGNTMVRGVIIPFEYWDKGTLVTVSS VL: DIVMTQTPLSLPVTLGQPASISCRSSQSLVHSDGNTYLNWFQQRPGQSPRRLIYKVSNRDSGVPDRFSGSGAGTDFTLKISRVEAEDVGVYYCTQATQFPFTFGPGTKVDIKR	4.06 nM	3.53 nM	12.2 nM
CA555 (antibody, V domains shown) VH: EVQLQQWGAGLLKPSETLSLTCAVYGGSFSGYYWSWIRQPPGKGLEWIGEVNHSGSTNYNPSLKSRVTISVDTSKNQLSLKLNSVTAADTAVYYCARGNTMVRGVIIPFEYWDKGTLVTVSS VL: not shown	3.17 nM	1.58 nM	13.9 nM
